The values that follow come from US20230002481A1 (Chugai, published 2023).

For the test, the target named is T1, recombinant human C1r2s2 tetramer (human, UniProt P09871 16-688; P00736 18-705).
T1 construct: Heterotetramer of two C1r and two C1s chains, co-expressed in FreeStyle293-F cells; also called human C1r2s2s
T1 chain 1: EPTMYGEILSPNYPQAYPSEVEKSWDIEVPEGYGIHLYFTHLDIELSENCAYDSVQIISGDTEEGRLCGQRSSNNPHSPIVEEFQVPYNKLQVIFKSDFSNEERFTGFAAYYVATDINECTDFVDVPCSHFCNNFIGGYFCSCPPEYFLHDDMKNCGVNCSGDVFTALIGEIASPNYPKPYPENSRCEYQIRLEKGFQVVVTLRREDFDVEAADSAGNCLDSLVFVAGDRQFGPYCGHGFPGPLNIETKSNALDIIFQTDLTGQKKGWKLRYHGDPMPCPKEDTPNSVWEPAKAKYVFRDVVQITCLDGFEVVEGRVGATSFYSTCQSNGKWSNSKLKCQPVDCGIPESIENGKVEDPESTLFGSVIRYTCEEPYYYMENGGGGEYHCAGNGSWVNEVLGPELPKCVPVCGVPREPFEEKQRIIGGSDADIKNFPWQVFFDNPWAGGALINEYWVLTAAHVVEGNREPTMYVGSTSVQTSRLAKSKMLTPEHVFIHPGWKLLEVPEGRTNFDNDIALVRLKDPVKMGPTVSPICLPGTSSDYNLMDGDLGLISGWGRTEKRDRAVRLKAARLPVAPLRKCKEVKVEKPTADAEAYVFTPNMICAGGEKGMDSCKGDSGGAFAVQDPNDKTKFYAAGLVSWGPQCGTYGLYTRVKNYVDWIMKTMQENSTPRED
T1 chain 2: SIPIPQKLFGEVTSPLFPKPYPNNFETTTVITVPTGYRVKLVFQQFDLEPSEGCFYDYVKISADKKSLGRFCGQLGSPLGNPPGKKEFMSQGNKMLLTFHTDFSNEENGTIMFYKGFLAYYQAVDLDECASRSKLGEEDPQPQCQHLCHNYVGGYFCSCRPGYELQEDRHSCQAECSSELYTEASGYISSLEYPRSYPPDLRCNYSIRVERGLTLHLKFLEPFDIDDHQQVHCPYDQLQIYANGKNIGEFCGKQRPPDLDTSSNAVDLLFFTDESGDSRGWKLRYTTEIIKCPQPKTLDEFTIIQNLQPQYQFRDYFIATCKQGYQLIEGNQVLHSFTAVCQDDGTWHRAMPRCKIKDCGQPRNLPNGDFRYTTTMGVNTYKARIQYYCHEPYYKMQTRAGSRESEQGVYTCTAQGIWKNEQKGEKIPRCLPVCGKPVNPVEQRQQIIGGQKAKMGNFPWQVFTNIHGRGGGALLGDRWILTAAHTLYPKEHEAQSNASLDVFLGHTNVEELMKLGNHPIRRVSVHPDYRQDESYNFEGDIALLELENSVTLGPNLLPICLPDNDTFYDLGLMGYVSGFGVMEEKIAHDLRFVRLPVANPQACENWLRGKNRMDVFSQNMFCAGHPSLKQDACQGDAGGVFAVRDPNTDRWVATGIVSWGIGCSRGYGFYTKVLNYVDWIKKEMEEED
As to the kind of experiment: SPR (Biacore), antibody captured on ProA/G, antigen as analyte, 37 C, pH5.8, 1.2 mM CaCl2; pH 5.8. The method, then:
The kinetic parameters of anti-C1s antibodies against recombinant human C1s (as described in PCT/JP2018/042054), human C1r2s2, and cyno C1r2s2 His/Flag (also referred as cyno C1r2s2 in the Table and Figures) were assessed at pH7.4 and pH5.8, at 37 degrees C. using BIACORE (registered trademark) T200 instrument (GE Healthcare) or BIACORE 4000 (GE Healthcare). ProAG (Pierce) was immobilized onto a CM4 sensorchip using amine coupling kit (GE Healthcare) according to the recommended settings by GE Healthcare. Antibodies and analytes were diluted into the respective running buffers, ACES pH7.4 and pH5.8 (20 mM ACES, 150 mM NaCl, 1.2 mM CaCl₂, 1 mg/ml BSA, 1 mg/ml CMD, 0.05% Tween 20, 0.005 w/v % NaN₃). Each antibody was captured onto the sensor surface by ProA/G. Antibody capture levels were typically 100-200 resonance units (RU). Then, recombinant C1s was injected at concentrations of 25 and 50 nM followed by dissociation at pH7.4 and pH5.8. The surface was regenerated using 10 mM Glycine-HCl, pH1.5. Kinetic parameters at neutral pH conditions and acidic conditions were determined by fitting the sensorgrams with 1:1 binding model using BIACORE (registered trademark) T200 Evaluation software, version 2.0 (GE Healthcare) or BIACORE 4000 Evaluation software. The dissociation rate at pH5.8 (after dissociation at pH7.4, indicated as pH5.8* in TABLE 2) was determined by processing and fitting data using Scrubber 2.0 (BioLogic Software) curve fitting software. The association rate (ka), dissociation rate (kd), binding affinity (KD) at pH7.4 and pH5.8 condition, and dissociation rate (kd) at pH5.8* condition of the antibodies are listed in TABLE 2. Some kinetic parameters of COS0098pHv1 in acidic condition were not correctly calculated because of its weak binding response.
Also, to observe the cross-reactivity of anti-C1s antibodies against human C1r2s2 and cyno C1r2s2 (cyno C1r2s2 His/Flag), BIACORE (registered trademark) kinetics analysis was performed.
For orientation: In SPR one partner is held on a chip, and binding of the other changes the refractive index at the surface.

B1: COS0098bb (antibody, V domains shown)
VH: QSVEESGGRLVTPGTPLTLTCTVSGFSLTKYTVSWVRQAPGKGLEWIGIINTGGSAYYATWAKGRFTFSKTSTTVDLQITSPTTEDTATYFCARGNGDTDYTNLWGPGTLVTVSS
VL: QVLTQTPSSVSEPVGGTVTINCQASENIYSALAWYQQKPGQPPKLLIYGASNLESGVPSRFKGSGSGTQFTLTISDLECADAATYYCQQYYFTSSTFGGGTKVEIK
notes: Anti-C1s rabbit antibody, parent of COS0098pHv1; the antibody was captured by ProA/G; also called anti-C1s antibody COS0098bb
Consider B1, for which the Kd was found to be 1.2 nM, the koff was determined as 0.00103 s⁻¹ and the kon stood at 858000 M⁻¹ s⁻¹.

A word on the Kd: it is a measure of binding affinity in units of concentration. One may read the koff as a measure of how fast the partners let go of each other. By kon is commonly meant the second-order rate constant of association.
